Tests used:
[1] = target: T1, recombinant MsrA/B (methionine sulfoxide reductase) from N. gonorrhoeae 1291, amino acids 30-522 of SEQ ID NO: 1 (recombinant with 6-His tag SEQ ID NO: 15); tag (Neisseria gonorrhoeae, UniProt P14930, E520K); assay: Surface plasmon resonance (SPR) affinity assay of Met(O) binding to immobilized MsrA/B; set-up: species or system Neisseria gonorrhoeae 1291; details: read-out: KD (equilibrium dissociation constant), Biacore T200, MsrA/B immobilized on CM5 chip, Met(O) 0.16 to 100 nM, single cycle kinetics, absence of serum/antibody
T1 construct: 6-His tag (N); thrombin cleavage site (N); made in house; host or cells: E. coli BL21 Star (DE3)pLysS
T1 sequence (P14930 with tags, fused parts or gaps E520K): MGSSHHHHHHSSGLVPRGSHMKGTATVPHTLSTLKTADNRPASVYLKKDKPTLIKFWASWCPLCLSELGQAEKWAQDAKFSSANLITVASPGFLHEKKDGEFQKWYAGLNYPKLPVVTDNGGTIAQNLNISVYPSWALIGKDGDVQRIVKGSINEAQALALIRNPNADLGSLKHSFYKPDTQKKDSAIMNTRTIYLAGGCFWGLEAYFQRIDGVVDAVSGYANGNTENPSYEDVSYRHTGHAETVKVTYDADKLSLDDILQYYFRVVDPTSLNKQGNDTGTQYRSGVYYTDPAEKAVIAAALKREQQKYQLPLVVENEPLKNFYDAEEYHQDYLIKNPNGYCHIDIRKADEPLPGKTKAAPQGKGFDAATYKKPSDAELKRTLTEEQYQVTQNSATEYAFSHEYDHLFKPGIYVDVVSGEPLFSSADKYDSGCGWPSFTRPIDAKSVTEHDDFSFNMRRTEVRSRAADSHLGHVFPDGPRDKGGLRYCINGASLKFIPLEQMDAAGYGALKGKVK
Experimental: The msr gene was amplified from N. gonorrhoeae 1291 using primers msrexp_NdeIF (5′-[…]-3′; SEQ ID NO:20) and msrexp_XhoIR (5′-[…]-3′; SEQ ID NO:21) and the resulting PCR product was cloned into pET15b to obtain a Msr expression construct pET15bmsr. The construct pET15bmsr was transformed into E. coli BL21 Star (DE3)pLysS host strain (Novagen) and MsrA/B was overexpressed and purified. Briefly, expression was induced by 0.1 mM IPTG at an optical density at 600 nm (OD600) of 0.4 for 24 hr at room temperature. Cell cultures were harvested and the cell pellet was re-suspended in buffer A. Cells were lysed by sonication, centrifuged and the supernatant was applied to a column packed with TALON™ metal affinity resins (Clontech laboratories, Inc). […] Fractions were collected and analyzed by 4-12% NuPAGE® Novex Bis-Tris Gels (Invitrogen) stained with Coomassie Blue, and by Western blot of anti-His polyclonal antisera. […]
SPR assays were performed using a Biacore T200 for affinity analysis and a Pall Pioneer FE for competition assays. […] Data was analyzed using the Biacore T200 evaluation software package. […] Data was collected using the Pioneer Software package and analyzed using Qdat analysis software. The percentage blocking was calculated based on the relative RMax of the Met(O) injection with and without serum, and the serum with and without Met(O). […]

[2] = system: whole cell N. gonorrhoeae 1291; assay: Whole cell ELISA of mouse antisera against N. gonorrhoeae 1291 strains; type: binding; details: antisera of 5 mice immunized with Freund's adjuvant; for Whole cell ELISA titre to the mutant strain: 1291 msr::kan mutant; for Whole cell ELISA average titre to 1291 Δmsr_C: complemented strain; for Whole cell ELISA average titre to 1291: wild-type 1291
Experimental: Groups of 10 female BALB/c mice (6 weeks old) were immunized subcutaneously with 5 μg of recombinant MsrA/B with either Alhydrogel® (aluminium hydroxide, InvivoGen) or Freund's (FCA/FIA, Sigma-Aldrich) adjuvant on days 0, 21, and 28. Terminal bleeds were collected on day 42. For Freund's adjuvant, Freund's complete adjuvant (FCA) was used on day 0 and Freund's incomplete adjuvant (FIA) was used in the boosts of day 21 and 28. Pre-bleed of each mouse was collected 4 days before immunization. This study was carried out in accordance with the recommendations of the Australian Code for the Care and Use of Animals for Scientific Purposes, the Griffith University Animal Ethics Committee (AEC). The protocol was approved by the Griffith University AEC.
For whole cell ELISA, bacteria were grown on BHI or GC plates for 16 hr. Cells were harvested and resuspended in PBS at an OD600 of 0.2. Microtitre plate wells were filled with 50 μl of the bacterial suspension and dried at room temperature overnight in the laminar flow cabinet. The bacteria in the dried wells were then heat-killed for 1 hr in 56° C. For recombinant protein ELISA, wells of plates were coated with 100 ng of purified recombinant MsrA/B protein in 100 μl of coating buffer (0.5M carbonate/bicarbonate buffer, pH 9.6) for 1 hr at room temperature. All ELISAs were performed with mouse pre-immune or MsrA/B immunized sera, and secondary antibody as specified in the results (polyclonal anti-mouse Ig HRP (Dako) or IgG1, IgG2a, IgG2b, IgG3 or IgM HRP (Thermofisher Scientific)). The substrate TMB (3,3′, 5,5;-tetramethylbenzidine) solution (Thermofisher Scientific) was used as per manufacture's instruction. Equal amount of 1 N hydrochloric acid was added to stop the reaction. Absorbance was read in a TECAN Model Infinite 200 Pro plate reader at 450 nm.

C[S+]([O-])CC[C@H](N)C(=O)O (stereo partly shown) [Met(O), methionine sulfoxide]
Kd [1]: 15.4 ± 3.7 nM

B1: MsrA: recombinant MsrA domain, his-tag removed (SEQ ID NO:28), given to mice with Freund's adjuvant (protein)
chain: GSHMKHSFYKPDTQKKDSAIMNTRTIYLAGGCFWGLEAYFQRIDGVVDAVSGYANGNTENPSYEDVSYRHTGHAETVKVTYDADKLSLDDILQYYFRVVDPTSLNKQGNDTGTQYRSGVYYTDPAEKAVIAAALKREQQKYQLPLVVENEPLKNFYDAEEYHQDYLIKNPNGYCHIDIRKADEPLPG
modifications: Recombinant MsrA
Whole cell ELISA titre to the mutant strain [2]: 1,000
Whole cell ELISA average titre to 1291 Δmsr_C [2]: 20,000
Whole cell ELISA average titre to 1291 [2]: 10,000

B2: MsrB: recombinant MsrB domain, his-tag removed (SEQ ID NO:31), given to mice with Freund's adjuvant (protein)
chain: GSHMKAATYKKPSDAELKRTLTEEQYQVTQNSATEYAFSHEYDHLFKPGIYVDVVSGEPLFSSADKYDSGCGWPSFTRPIDAKSVTEHDDFSFNMRRTEVRSRAADSHLGHVFPDGPRDKGGLRYCINGASLKFIPLEQMDAAGYGALKGKVK
modifications: Recombinant MsrB
Whole cell ELISA titre to the mutant strain [2]: 1,000
Whole cell ELISA average titre to 1291 Δmsr_C [2]: 40,000
Whole cell ELISA average titre to 1291 [2]: 16,000

— patent US12390517B2, “Compositions, methods and uses for eliciting an immune response” (Griffith University, priority 2018, dated 2025)
